{"source": "IntAct's records for PubMed 19542283", "parents": {"B1": {"name": "Chemotaxis protein CheA (Escherichia coli (strain K12)), P07363-2 (parent)", "chain": "MQEQLDAYKQSQEPDAASFDYICQALRQLALEAKGETPSAVTRLSVVAKSEPQDEQSRSQSPRRIILSRLKAGEVDLLEEELGHLTTLTDVVKGADSLSAILPGDIAEDDITAVLCFVIEADQITFETVEVSPKISTPPVLKLAAEQAPTGRVEREKTTRSNESTSIRVAVEKVDQLINLVGELVITQSMLAQRSSELDPVNHGDLITSMGQLQRNARDLQESVMSIRMMPMEYVFSRYPRLVRDLAGKLGKQVELTLVGSSTELDKSLIERIIDPLTHLVRNSLDHGIELPEKRLAAGKNSVGNLILSAEHQGGNICIEVTDDGAGLNRERILAKAASQGLTVSENMSDDEVAMLIFAPGFSTAEQVTDVSGRGVGMDVVKRNIQKMGGHVEIQSKQGTGTTIRILLPLTLAILDGMSVRVADEVFILPLNAVMESLQPREADLHPLAGGERVLEVRGEYLPIVELWKVFNVAGAKTEATQGIVVILQSGGRRYALLVDQLIGQHQVVVKNLESNYRKVPGISAATILGDGSVALIVDVSALQAINREQRMANTAA", "partner": "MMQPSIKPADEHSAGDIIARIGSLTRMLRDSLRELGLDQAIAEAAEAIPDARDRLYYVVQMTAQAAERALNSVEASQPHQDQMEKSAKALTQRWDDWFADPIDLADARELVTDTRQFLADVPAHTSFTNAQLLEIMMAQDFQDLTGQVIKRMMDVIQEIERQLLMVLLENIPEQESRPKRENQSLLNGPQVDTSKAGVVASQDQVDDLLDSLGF"}}, "data": [{"variants_of": "B1", "settings": "with chez_ecoli cheZ", "values": [{"variant": "I22S", "effect of a mutation on the interaction": "disrupting interaction strength"}, {"variant": "I22A", "effect of a mutation on the interaction": "decreasing interaction strength"}, {"variant": "Y21S", "effect of a mutation on the interaction": "disrupting interaction strength"}, {"variant": "L26S", "effect of a mutation on the interaction": "disrupting interaction strength"}, {"variant": "L26A", "effect of a mutation on the interaction": "disrupting interaction strength"}]}]}
